Data: US5326551A, “Nuclear imaging uses of radio-labelled atrial natriuretic factor” (L'Istitut de Recherches Cliniques de Montreal, priority 1991, dated 1994)

Assays:
[1] = adult males of approximately 75 kg, bolus injection; cited from earlier work
[2] = Gamma camera imaging of radio-labelled ANF uptake in green vervet monkey; assay type: in vivo
Method: ANF 99-126, rat form: 5 μg) was labelled by the inventors with ^125 I (1 mCi, obtained from commercial sources) using the lactoperoxidase method. The labelled compound was purified on HPLC (C-18 μBondapak™ column) by known methods. 250 μCi of the ^125 I ANF was administered to a 7 kg male monkey of green vervet species, as an intravenous bolus, under pentobarbital anesthesia. Prior to the experiment, the monkey was kept in a single cage with free access to food and water. The animal was subjected to data acquisition for 60 minutes using, as the scintillation detector, a gamma camera attached to a computer. Images and computer data were acquired at 10 second intervals.
A 7 kg anesthetized monkey which had been previously dehydrated for 18 hours was injected with an intravenous bolus injection of 80 μCi of ^131 I-ANF. […] Serial images (0-5, 5-10, 10-20 min.) and time activity curves were done and analyzed of the following regions of interest: the lungs, the kidneys, the upper and lower abdomen. […]
Serial images (0-7, 7-13, 13-20, 20-26, 26-30 min.) and time-activity curves were obtained and analyzed of the regions of interest over the lungs, kidneys, upper and lower abdomen. […]
The maximum and minimum levels of radioactivity over the 3 hour test period are given in each case.

[3] = Gamma camera study of radio-labelled ANF in rabbits; assay type: in vivo, rabbit
Method: A gamma camera study was carried out using ^131 I-ANF in domestic rabbits. The animals were sedated using Nembutal and the ANF was injected via the marginal ear vein. Camera images were taken at 100,000 count intervals up to 2.5 hours post injection.
A subsequent study with ^123 I-ANF in New Zealand White rabbits was also carried out. The animals were sedated with Nembutal and ANF was injected via the marginal ear vein. Camera images were taken at 100,000 intervals up to 1.25 hours post injection.

Compound	bolus dose giving a medically effective hypotensive effect [1]	uptake of radio-label ([2]; 7 kg monkey dehydrated for 18 hours, 80 μCi intravenous bolus)	uptake of radio-label compared with dehydrated animal ([2]; 7 kg monkey hydrated with 120 cc saline, 65 μCi intravenous)	most prominent organ ([3]; lung also visible)	time of rapid accumulation in the kidney ([3]; post-injection, marginal ear vein, Nembutal sedation) [min]
CC[C@H](C)[C@@H]1NC(=O)[C@H](CCCNC(=N)N)NC(=O)[C@H](CC(=O)O)NC(=O)[C@H](CCSC)NC(=O)[C@H](CCCNC(=N)N)NC(=O)CNC(=O)CNC(=O)[C@H](Cc2ccccc2)NC(=O)[C@@H](NC(=O)[C@H](CO)NC(=O)[C@H](CO)NC(=O)[C@H](CCCNC(=N)N)NC(=O)[C@H](CCCNC(=N)N)NC(=O)[C@H](CC(C)C)NC(=O)[C@@H](N)CO)CSSC[C@@H](C(=O)N[C@@H](CC(N)=O)C(=O)N[C@@H](CO)C(=O)N[C@@H](Cc2ccccc2)C(=O)N[C@@H](CCCNC(=N)N)C(=O)N[C@@H](Cc2ccc(O)cc2)C(=O)O)NC(=O)CNC(=O)[C@H](CC(C)C)NC(=O)CNC(=O)[C@H](CO)NC(=O)[C@H](CCC(N)=O)NC(=O)[C@H](C)NC(=O)CNC1=O [ANF, atrial natriuretic factor]	greater than 50 μg				
^131 I-ANF: human ANF (99-126) with methionine in position 110 labelled with ^131 I; in Example 7 rat or human ANF		rapid uptake of radio-label particularly by the kidneys and lungs	lesser uptake of radio-label in both kidney and lung	kidney was the most prominent organ	3
